In patent publication US20230107034A1 (published 2023):
Residue numbers refer to the chain shown, from its start. Blank lines part the entries; values can stand above or below the binder they belong to.

Key:
monomeric Aβ [1] = target: T1, monomeric Aβ (UniProt P05067 672-713); assay: BIAcore SPR
[2] = target: T2, synthetic Aβ protofibrils (Aβ1-42-derived protofibrils) (UniProt P05067 672-713); assay: Octet BLI (Protein G sensor); PF 0.9167 nM; LB
monomeric Aβ [3] = target: T1, monomeric Aβ; assay: SPR
[4] = target: T2, synthetic Aβ protofibrils …; assay: Octet BLI (Protein G sensor); PF 14.7 nM; LB
[5] = target: T2, synthetic Aβ protofibrils …; assay: Octet BLI (Protein G sensor); PF 3.67 nM; LB
monomeric Aβ [6] = target: T1, monomeric Aβ; assay: BIAcore SPR; remark: listed apart in the source
[7] = target: T2, synthetic Aβ protofibrils …; assay: Octet BLI (Protein G sensor); PF 3.67 nM
[8] = target: T2, synthetic Aβ protofibrils …; assay: Octet BLI (Protein G sensor); PF 0.9167 nM
monomeric Aβ [9] = target: T1, monomeric Aβ; assay: SPR; remark: listed apart in the source
[10] = target: T2, synthetic Aβ protofibrils …; assay: Octet BLI (Protein G sensor); PF 14.7 nM
monomeric Aβ [11] = target: T1, monomeric Aβ; assay: SPR; remark: listed apart in the source
monomeric Aβ [12] = target: T1, monomeric Aβ; assay: SPR; remark: listed apart in the source
monomeric Aβ [13] = target: T1, monomeric Aβ; assay: BIAcore SPR; remark: listed apart in the source

T2 sequence (P05067 672-713): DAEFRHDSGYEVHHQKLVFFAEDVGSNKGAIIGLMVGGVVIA
T1 sequence (P05067 672-713): as above

B2: B24 (hybridoma-purified mAb) (antibody, V domains shown)
VH: EVQLLESGGGLVQPGGSLRLSCAASGFTFSSYAMTWVRQAPGEGLEWVSTISGSGIRTYYADSVKGRFTISRDNSKNTMYLQMNSLRAEDTAVYYCAKDGLTGDRRWYFDLWGRGTLVTVSS
VL: EIVMTQSPATLSLSPGERATLSCRASQSVSSSYFSWYQQKPGQAPRLLIYGASTRATGIPARFSGSGSGTDFTLTISSLQPEDFAVYYCQQDSNLPLTFGGGTKVEIK
Kd [2]: < 1 pM
koff (monomeric Aβ [3]): 0.0956 s⁻¹
Kd [4]: < 1 pM
Kd [5]: < 1 pM

B3: B19 reprep (=B24) (antibody, V domains shown)
VH: B2 VH
VL: B2 VL
koff (monomeric Aβ [6]): 6.58e-07 s⁻¹

B6: B51 (hybridoma-purified mAb) (antibody, V domains shown)
VH: QVQLVESGGGVVQPGRSLRLSCAASGFTFSSHGMHWVRQAPGKGLEWVAVIWYDGSNKNYADSVKGRFTISRDNSKNTLYLQMNSLRAEDTAVYYCARRGRVGVTRNYYYYGMDVWGQGTTVTVSS
VL: AIQMTQSPSSLSASVGDRVTITCRASQGIRNDLGWFQQKPVKAPKLLIYPASSLQSGVPSRFSGSGSGTDFTLTISSLQPEDFATYYCLQDYNYPWTFGQGTKVEIK
Kd [7]: < 1 pM
Kd [8]: < 1 pM
Kd [10]: < 1 pM
koff (monomeric Aβ [12]): 0.0144 s⁻¹

B7: B28 (hybridoma-purified mAb) (antibody, V domains shown)
VH: B6 VH with L18V, S25T, H32Y, Y53F, K58E, N59Y, K65R, G112N
VL: B6 VL with V41G, G68D, Y94F, W96F, Q100P, E105D
koff (monomeric Aβ [13]): 9.41e-05 s⁻¹
Kd [7]: < 1 pM
Kd [10]: 21800 pM

B8: B54 (hybridoma-purified mAb) (antibody, V domains shown)
VH: B6 VH with S31T, H32Y, V50L, N57K, N59Y, K65Q, N74S, A88V
VL: B6 VL with A25T, G28D, V41G, L46F, S56G, T72I, Y94F, Q100E
Kd [7]: < 1 pM
Kd [8]: < 1 pM
Kd [10]: < 1 pM
koff (monomeric Aβ [12]): 0.00526 s⁻¹

The remaining lines, values ahead:

koff (monomeric Aβ [1]): 0.00238 s⁻¹
B1: B75 (hybridoma-purified mAb) (antibody, V domains shown)
VH: QVQLVESGGGVVQPGRSLRLSCAASGFTFSSYGMHWVRQAPGKGLEWVAVIWYDGSYKYYADSVKGRFTISRDNSKNTLYLQMNSLRVEDTAVYYCAREGRTYYDFLTGYFDFWGQGTLVTVSS
VL: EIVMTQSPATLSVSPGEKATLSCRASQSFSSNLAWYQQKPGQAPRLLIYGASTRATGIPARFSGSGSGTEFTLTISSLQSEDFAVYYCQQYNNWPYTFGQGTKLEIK

Kd [7]: < 1 pM
Kd [8]: < 1 pM
koff (monomeric Aβ [9]): 0.0012 s⁻¹
Kd [10]: < 1 pM
B4: B73 (hybridoma-purified mAb) (antibody, V domains shown)
VH: QLQLQMSGPGLVKPSETLSLTCTVSGGSISSSSYYWGWIRQSPGKGLEWIGSIYYSGRTYYNPSLKSRVTISVDTSKNQFSLKLSSVTAADTAMYYCARRSSGRPYYWGQGTLVTVSS
VL: QAVVTQESALTTSPGGTVILTCRSSTGAVTTSNYANWVQEKPDHLFTGLIGETNNRAPGVPVRFSGSLIGDKAALTITGAQTEDDAMYFCALWYSTHWVFGGGTKLTVL

Kd [7]: < 1 pM
koff (monomeric Aβ [11]): 0.00722 s⁻¹
Kd [8]: < 1 pM
Kd [10]: < 1 pM
B5: B90 (hybridoma-purified mAb) (antibody, V domains shown)
VH: B6 VH with H32Y, V50I, N57K, N59Y, A88V, V104A, N107D, G112S
VL: B6 VL with Q37H, V41G, P50A, N93V

koff (monomeric Aβ [1]): 0.00356 s⁻¹
B9: B60 (antibody, V domains shown)
VH: B6 VH
VL: B6 VL
